According to patent US20230357447A1 (JANUX THERAPEUTICS, published 2023):

target: T1, Anti-CD28 scFv (VH-linker 1-VL) (biotinylated (site not stated)); experiment: phage binding ELISA on captured anti-CD28 scFv, wells pre-incubated with soluble CD28 (competitor);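 further: crude clonal phage supernatants added without washing, bound phage detected by HRP-conjugated anti-M13 antibody, control wells held blocking buffer alone instead of CD28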
T1 construct: biotinylated and captured on neutravidin coated plates in the phage ELISA
T1 sequence (scFv, as listed by the source): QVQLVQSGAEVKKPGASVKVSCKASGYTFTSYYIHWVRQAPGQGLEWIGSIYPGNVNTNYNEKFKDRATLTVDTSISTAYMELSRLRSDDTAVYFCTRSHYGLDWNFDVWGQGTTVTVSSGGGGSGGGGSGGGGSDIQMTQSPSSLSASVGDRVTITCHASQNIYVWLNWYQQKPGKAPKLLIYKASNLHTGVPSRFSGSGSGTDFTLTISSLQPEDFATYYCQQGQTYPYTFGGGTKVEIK

Binder | CD28 scFv signal in presence of CD28
MDWCPRFLWDVCFN [Phage-330] | 0.309
MDWCPTYLWNVCFA [Phage-323] | 0.132
IDWCPRALWDACLA [Phage-332] | 0.164
MDWCPAYLWDECFA [Phage-325] | 0.163
MDWCPRALWNVCFA [Phage-329] | 0.249
MDWCPRALWDHCFN [Phage-328] | 0.293
MDWCPRHLWYECFS [Phage-324] | 0.163
MDWCPSDMWANCFF [Phage-389] | 0.316
MFWCPITLWNECFN [Phage-326] | 0.143
MHWCPRDLWHVCFN [Phage-327] | 0.15
MDWCPRHLWDECFN [Phage-341] | 0.268
MDWCPRHLWLECFN [Phage-387] | 0.074
MDWCPRYLWLECFN [Phage-354] | 0.368
MDWCPRHLWIECFN [Phage-322] | 0.376
MDWCPRHLWDECFY [Phage-331] | 0.146
IDWCPMHMWDFCYN [Phage-390] | 0.232
LHWCPTSMWTYCYY [Phage-392] | 2.46

target: T1, Anti-CD28 scFv (VH-linker 1-VL); experiment: phage binding ELISA on captured biotinylated anti-CD28 scFv;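 further: crude clonal phage supernatants applied to the wells, bound phage read out with an HRP-conjugated anti-M13 antibody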
Experimental: (§1) Clonal phage were harvested as crude supernatants and screened via standard enzyme linked immunosorbent assays (ELISAs). […] Prior to the addition of clonal phage, wells were incubated with blocking buffer and CD28 soluble protein or blocking buffer alone. Without washing or aspirating, clonal phage supernatants were then added to the wells and incubated for a short time. Wells were then washed followed by detection of bound phage using a horse radish peroxidase conjugated anti-M13 antibody.

Binder | CD28 scFv signal
MDWCPRFLWDVCFN [Phage-330] | 2.14
MDWCPSNMWNECFF [Phage-416] | 0.983
MDWCPTYLWNVCFA [Phage-323] | 2.21
IDWCPRALWDACLA [Phage-332] | 2.1
MDWCPAYLWDECFA [Phage-325] | 2.17
MDWCPRALWNVCFA [Phage-329] | 2.14
VDWCPAHMWNECYN [Phage-419] | 0.664
MDWCPRALWDHCFN [Phage-328] | 2.15
MDWCPRHLWYECFS [Phage-324] | 2.17
MDWCPPHLWHECFF [Phage-358] | 1.45
MFWCPITLWNECFN [Phage-326] | 2.15
MHWCPRDLWHVCFN [Phage-327] | 2.15
MDWCPRHLWDECFN [Phage-341] | 1.98
MDWCPRHLWLECFN [Phage-387] | 0.066
MDWCPRYLWLECFN [Phage-354] | 1.69
MDWCPRHLWIECFN [Phage-322] | 2.21
MDWCPRHLWDECFY [Phage-331] | 2.13

target: T2, Anti-CD28 scFv (VH-linker 1-VL) (biotinylated for capture on neutravidin plates); experiment: phage ELISA, scFv captured on plate, competitor soluble CD28;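 further: crude clonal phage supernatants added to wells pre-incubated with soluble CD28 or with blocking buffer only as control, bound phage read out with HRP-linked anti-M13 antibody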
T2 sequence (scFv, as listed by the source): as above
Experimental: as §1

Binder | Phage binding ELISA CD28 scFv signal in presence of CD28
MDWCPRAMWNHCFN [Phage-198] | 0.426
MDWCPTDMWHHCFL [Phage-205] | 0.126
MDWCPMNMWYQCFN [Phage-216] | 0.137
MDWCPSDMWHECYA [Phage-194] | 0.2
MDWCPRHMWYECFF [Phage-197] | 0.298
MDWCPTDMWIVCFA [Phage-208] | 0.172
IDWCPQDMWFYCFN [Phage-209] | 0.16
MFWCPMDMWDQCFN [Phage-202] | 0.207
IHWCPINMWDKCYN [Phage-206] | 0.203
MDWCPRDMWFECFA [Phage-210] | 0.143
MNWCPSYMWDQCFA [Phage-213] | 0.105
MDWCPRAMWHECFY [Phage-207] | 0.129
MDWCPRDMWDQCFD [Phage-201] | 0.119
MDWCPRYMWYQCFS [Phage-196] | 0.357
MDWCPRNMWAQCFA [Phage-199] | 0.209
MDWCPTYMWSECFN [Phage-214] | 0.107
MSWCPRDMWFYCYA [Phage-203] | 0.174
MDWCPRYMWNECFN [Phage-215] | 0.128
MDWCPRAMWDKCFF [Phage-212] | 0.094
MDWCPKHMWFMCFN [Phage-195] | 0.372
MFWCPFDMWHFCFN [Phage-200] | 0.469

target: T2, Anti-CD28 scFv (VH-linker 1-VL); experiment: phage ELISA, scFv captured on plate;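 further: crude clonal phage supernatants added to wells preincubated with soluble CD28 or with blocking buffer only, bound phage read out by HRP-linked anti-M13 antibody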
Experimental: as §1

Binder | Phage binding ELISA CD28 scFv signal
MDWCPRAMWNHCFN [Phage-198] | 2.33
MDWCPTDMWHHCFL [Phage-205] | 2.2
MDWCPMNMWYQCFN [Phage-216] | 0.639
MDWCPSDMWHECYA [Phage-194] | 2.47
MDWCPRHMWYECFF [Phage-197] | 2.34
MDWCPTDMWIVCFA [Phage-208] | 1.5
IDWCPQDMWFYCFN [Phage-209] | 1.42
MFWCPMDMWDQCFN [Phage-202] | 2.26
IHWCPINMWDKCYN [Phage-206] | 2.08
MDWCPRDMWFECFA [Phage-210] | 1.31
MNWCPSYMWDQCFA [Phage-213] | 0.854
MDWCPRAMWHECFY [Phage-207] | 1.92
MDWCPRDMWDQCFD [Phage-201] | 2.29
MDWCPRYMWYQCFS [Phage-196] | 2.36
MDWCPRNMWAQCFA [Phage-199] | 2.31
MDWCPTYMWSECFN [Phage-214] | 0.754
MSWCPRDMWFYCYA [Phage-203] | 2.25
MDWCPRYMWNECFN [Phage-215] | 0.687
MDWCPRAMWDKCFF [Phage-212] | 0.985
MDWCPKHMWFMCFN [Phage-195] | 2.4
MFWCPFDMWHFCFN [Phage-200] | 2.29

target: T3, anti-CD28 scFv (VH-linker 1-VL) (biotinylated (site not stated)); experiment: phage ELISA; scFv wells pre-incubated with soluble CD28 (competitor);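 further: crude clonal phage supernatants added to wells pretreated with soluble CD28 in blocking buffer, bound phage read via HRP-linked anti-M13 antibody, reference wells got blocking buffer only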
T3 construct: Captured as biotinylated scFv on neutravidin coated plates in the phage ELISA
T3 sequence (scFv, as listed by the source): as above

Binder | CD28 scFv signal in presence of CD28
MDWCPRYLWNVCFA (on phage (pIII fusion)) [Phage-289 clonal phage peptide] | 0.28
MDWCPRSIWYLCFN (on phage (pIII fusion)) [Phage-278 clonal phage peptide] | 1.34
MDWCPRHLWTECFS (on phage (pIII fusion)) [Phage-297 clonal phage peptide] | 0.243
MDWCPRDLWNLCFF (on phage (pIII fusion)) [Phage-236 clonal phage peptide] | 0.436
MDWCPLYLWAECFN (on phage (pIII fusion)) [Phage-298 clonal phage peptide] | 0.193
MDWCPRFMWDLCFA (on phage (pIII fusion)) [Phage-265 clonal phage peptide] | 0.725
